# In patent US10005838B2, “Milk fat globule epidermal growth factor 8 regulates fatty acid uptake” (REGENTS OF THE UNIVERSITY OF CALIFORNIA, priority 2013, dated 2018):
# Tests used:
# 3T3-L1 adipocytes = assay: Fluorescent fatty acid uptake assay in 3T3-L1 adipocytes; type: cell-based, mouse
# Procedure: Uptake of fatty acids by differentiated 3T3-L1 adipocytes or primary mouse adipocytes was assessed using a QBT Fatty Acid Uptake Kit (Molecular Devices). Cells were plated in triplicate in 96-well plates at a concentration of 25,000 cells per well in 100 μl of DMEM/10% FCS. Plates were centrifuged at 1000 rpm for 4 minutes and incubated at 37° Celsius for 4-5 hours. Cells were then serum deprived for 1 hour before treatment with recombinant proteins for 30 minutes followed by the addition of QBT Fatty Acid Uptake solution. […] Plates were incubated in a fluorescent plate reader at 37° Celsius and kinetic readings were acquired every 20 seconds for 30 minutes. Fluorescence values were plotted against time and data was expressed as relative fluorescent units per minutes×10^3. […]
# primary mouse adipocytes = assay: Fluorescent fatty acid uptake assay in primary mouse adipocytes; type: cell-based
# Procedure: Uptake of fatty acids by differentiated 3T3-L1 adipocytes or primary mouse adipocytes was assessed using a QBT Fatty Acid Uptake Kit (Molecular Devices). Cells were plated in triplicate in 96-well plates at a concentration of 25,000 cells per well in 100 μl of DMEM/10% FCS. Plates were centrifuged at 1000 rpm for 4 minutes and incubated at 37° Celsius for 4-5 hours. Cells were then serum deprived for 1 hour before treatment with recombinant proteins for 30 minutes followed by the addition of QBT Fatty Acid Uptake solution. In experiments using function-blocking antibodies, antibodies against mouse integrins αv (clone RMV-7) (Takahashi, K. et al., J Immunol 145, 4371-4379 (1990)) β3 (clone 2C9.G2; BD Biosciences) (Ashkar, S. et al., Science 287, 860-864 (2000)), β5 (clone ALULA) (Su, G. et al., American journal of respiratory cell and molecular biology 36, 377-386 (2007)), 131 (clone HA2/5; BD Biosciences, anti-rat with cross-reactivity with mouse (Zovein, A. C. et al., Developmental cell 18, 39-51 (2010)), CD36 (clone MF3; Abcam) (Helming, L. et al., Journal of cell science 122, 453-459 (2009)), human integrins αv (clone L230) (Thomas, G. J. et al., British journal of cancer 87, 859-867 (2002)), β3 (clone Axum-2) (Su, G. et al., Am J Respir Crit Care Med 185, 58-66 (2012)), β5 (clone ALULA), β1 (clone P5D2), cycloRGD and cycloRAD (BACHEM) were added to cells after serum deprivation and cells were incubated for 20 minutes at 4° Celsius prior to addition of recombinant proteins. Plates were incubated in a fluorescent plate reader at 37° Celsius and kinetic readings were acquired every 20 seconds for 30 minutes. Fluorescence values were plotted against time and data was expressed as relative fluorescent units per minutes×10^3.
# Primary mouse adipocytes were obtained from epididymal fat pads by collagenase digestion in Krebs-HEPES (KRBH) buffer followed by filtering through a 100 μm strainer which was then washed with an additional 7.5 mL KRBH buffer. Adipocytes were allowed to float to the top of the mixture for 5 minutes, and the solution under the adipocyte layer was removed with a syringe. The adipocytes were washed with 10 mL KRBH and again allowed to float to the surface, at which point the solution was again removed. This process was repeated for a total of 3 washes. After the last aspiration, adipocytes were resuspended in 0.5-1.0 mL and counted.
# Primary mouse adipocyte progenitors from the vascular stromal fraction were isolated and cultured as reported previously (Tseng et al., 2008). In brief, subcutaneous white adipose tissue was removed, minced and digested with 1 mg/ml collagenase for 45 min at 37° C. in DMEM/F12 medium containing 1% BSA and antibiotics. Digested tissues were filtered through sterile 150 μm nylon mesh and centrifuged at 250 g for 5 min. […]
# cardiac myocytes = assay: Fatty acid uptake in primary cardiac myocytes; type: cell-based, mouse
# [1] = Liver and small intestine triglyceride content after olive oil gavage; type: in vivo, mouse; conditions: Mfge8−/− mice; 8 hours after olive oil gavage
# Procedure: 6-8 week-old mice were fasted for 4 hours and then gavaged with 15 μL olive oil per gram body weight. Mice had access to water but not food for the remainder of the experiment. In the experiments in FIGS. 3C and 3F, 50 μg/kg body weight of recombinant protein was mixed into olive oil and administered immediately to mice by gavage. In blocking antibody experiments, integrins αv (clone RMV-7) and 05 (clone ALULA) were administered by gavaging mice with 100 μL water containing 0.5 μg antibody per gram body weight 30 minutes before olive oil gavage. Triglyceride content of serum was assayed using a commercially available kit (Sigma-Aldrich) and fatty acid concentrations were quantified by Wako (Rabot, S. et al., FASEB J 24, 4948-4959 (2010)).
# After experiments described above, samples from the left lobe of the liver and the proximal small intestine were isolated and rapidly frozen in liquid nitrogen for triglyceride content assays. Control mice were starved for 8 hours before their organs were harvested as above. Triglyceride content of the intestine (Uchida, A. et al., Front Physiol 3, 26) and liver (Kim, K. Y. et al., J Clin Invest 121, 3701-3712 (2011)) and fecal samples Kim, K. Y. et al., J Clin Invest 121, 3701-3712 (2011)) were quantified as described previously.
# AKT = assay: Western blot of antral tissue, AKT phosphorylation; set-up: species or system mouse; conditions: antral tissue treated for 30 minutes
# Procedure: In FIG. 14A, the antral rings were treated for 15 min with PI3K inhibitor wortmannin (Wort.100 nm) followed by assessment of contractile force in response to MCh. N=3-4. ***P<0.0001. […] Western blot of antral tissue were treated for 30 minutes with or without rMfge8. […] Western blot of antrum were treated for 30 minutes with wortmannin (100 ng/ml) or Mfge8 and then with MCh for 15 minutes prior to quantifying active RhoA using a GST pull-down. […] PTEN activity assay measured the conversion of PIP3 to PIP2 in freshly isolated antrum with and without the rMfge8 or RGE construct (10 μg/ml) n=3-5. *P<0.05, **P<0.01, ***P<0.001.
molecule,measurement,setting,value
"rMfge8: recombinant Milk Fat Globule Epidermal Growth Factor 8, an integrin ligand, expressed in High 5 cells (protein) ASGDFCDSSLCLNGGTCLTGQDNDIYCLCPEGFTGLVCNETERGPCSPNPCYNDAKCLVTLDTQRGDIFTEYICQCPVGYSGIHCETETNYYNLDGEYMFTTAVPNTAVPTPAPTPDLSNNLASRCSTQLGMEGGAIADSQISASSVYMGFMGLQRWGPELARLYRTGIVNAWTASNYDSKPWIQVNLLRKMRVSGVMTQGASRAGRAEYLKTFKVAYSLDGRKFEFIQDESGGDKEFLGNLDNNSLKVNMFNPTLEAQYIKLYPVSCHRGCTLRFELLGCELHGCSEPLGLKNNTIPDSQMSASSSYKTWNLRAFGWYPHLGRLDNQGKINAWTAQSNSAKEWLQVDLGTQRQVTGIITQGARDFGHIQYVASYKVAHSDDGVQWTVYEEQGSSKVFQGNLDNNSHKKNIFEKPFMARYVRVLPVSWHNRITLRLELLGC",fatty acid uptake (BODIPY fatty acid analog),3T3-L1 adipocytes,significantly increased
same,fatty acid uptake in CD36−/− adipocytes,primary mouse adipocytes; CD36−/− adipocytes,did not significantly increase
same,fatty acid uptake in FATP1−/− adipocytes,primary mouse adipocytes; FATP1−/− adipocytes,did not significantly increase
same,fatty acid uptake in Mfge8−/− adipocytes,primary mouse adipocytes; Mfge8−/− primary adipocytes and differentiated adipocyte progenitors,rescued
same,WT fatty acid uptake,primary mouse adipocytes; WT adipocytes,significantly increased
same,fatty acid uptake in Mfge8−/− cardiac myocytes,cardiac myocytes,rescued
same,liver triglyceride levels after gavage,[1],increased significantly
same,AKT phosphorylation in antral tissue,AKT,reduces
